Earlier results as cited in PMC12384152.

Biological target: β-spectrin repeats 14-15 (Homo sapiens) (UniProt P11277)
Sequence of UniProt P11277 (P11277 1691-1907): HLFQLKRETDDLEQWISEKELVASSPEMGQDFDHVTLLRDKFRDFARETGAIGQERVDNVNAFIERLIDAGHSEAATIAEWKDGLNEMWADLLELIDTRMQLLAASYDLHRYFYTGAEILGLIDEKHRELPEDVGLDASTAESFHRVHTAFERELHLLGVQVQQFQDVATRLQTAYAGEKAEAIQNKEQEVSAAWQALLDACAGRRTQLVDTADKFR

Kd: 15 nM
Substance: ankyrin-1 ZU5 (from UniProt P16157)
